Tests used:
[1] = target: PLK1 polo-box domain (PBD), PLK1 residue 345-603 (UniProt P53350); assay: ITC
[2] = target: GST-EBNA2 446-474 S457A/T465V (Epstein-Barr virus) (UniProt P12978); assay: pull-down; conditions: remark: other sources report otherwise
[3] = target: polo-like kinase 1 (PLK1) PBD, 345-603 (UniProt P53350); assay: isothermal titration calorimetry; conditions: reference: unphosphorylated peptide PNTSSPS; sites S379

EBNA2 phospho-heptapeptide PNTSpSPS
Kd [1]: 8.19 µM
stoichiometry N [1]: 1

histone acetylase and co-activator p300, Q09472 1-2414
fold change of p300 binding against wt [2]: 8 to 9 fold

EBNA2 (EBV nuclear antigen 2) (from UniProt P12978) phosphopeptide PNTSpSPS
KD [3]: 8.19 µM
